Reference: paper doi:10.1101/2023.11.02.23297943 (medRxiv, 2023)

Target: the molecule itself
Assay: cross-linking

B1: mitochondrial single-stranded DNA-binding protein 1 (SSBP1), wild-type recombinant protein (natural protein, human, UniProt Q04837 17-148, looked up)
chain: ESETTTSLVLERSLNRVHLLGRVGQDPVLRQVEGKNPVTIFSLATNEMWRSGDSEVYQLGDVSQKTTWHRISVFRPGLRDVAYQYVKKGSRIYLEGKIDYGEYMDKNNVRRQATTIIADNIIFLSDQTKEKE
binding result: binds

B2: SSBP1 p.Arg91Gln mutant, recombinant protein (natural protein, human, UniProt Q04837 17-148, looked up)
chain: ESETTTSLVLERSLNRVHLLGRVGQDPVLRQVEGKNPVTIFSLATNEMWRSGDSEVYQLGDVSQKTTWHRISVFQPGLRDVAYQYVKKGSRIYLEGKIDYGEYMDKNNVRRQATTIIADNIIFLSDQTKEKE
percent of dimers formed, compared to wild-type: 37.4 % of wild-type
percent of tetramers formed, compared to wild-type: 20.5 % of wild-type
percent of trimers formed, compared to wild-type: 12.7 % of wild-type
